From paper PMC4951027

Target: ecto-domain of integrin α5β1-Fc fusion protein
Experiment: SPR

B1: Fn + FnBPA-10 (FnBPA-10-bound Fn) (complex)
chain 1: not shown
chain 2: not shown
chain 3: KYEHGGNIIDIDFDSVPHIHGFNKHTEIIEEDTNKDKP
- Kd: 260 nM
- ka1 (first step, bivalent analyte model): 61000 M⁻¹ s⁻¹
- ka2 (second step, bivalent analyte model): 1.3e-05 RU^-1s^-1
- kd1 (first step, bivalent analyte model): 0.015 s⁻¹
- kd2 (second step, bivalent analyte model): 0.001 s⁻¹
